Measured values taken from PMC3997499, “Resolving Hot Spots in the C-Terminal Dimerization Domain that Determine the Stability of the Molecular Chaperone Hsp90” (PLoS ONE, 2014).
Values joined by “and” are separate entries in the source; they are usually repeats but may differ in a detail not shown here. Equal values may be shown once.

B1: hHsp90 CTD cold spot mutant CTD^S658A/Q682A (domain or fragment)
chain: not shown
notes: human Hsp90 alpha isoform (UniProt P07900), C-terminal domain, residues 563-732, with S658A and Q682A; Same construct as m1 (pTEV21-a), made by site-directed mutagenesis; also called S658A/Q682A cold spot mutant
B2: hHsp90 CTD hot spot mutant II CTD^I688A/Y689A/I692A (domain or fragment)
chain: not shown
notes: human Hsp90 alpha isoform (UniProt P07900), C-terminal domain, residues 563-732, with I688A, Y689A and I692A; Same construct as m1 (pTEV21-a), made by site-directed mutagenesis
B3: hHsp90 CTD hot spot mutant I CTD^Y689A/I692A/L696A (domain or fragment)
chain: not shown
notes: human Hsp90 alpha isoform (UniProt P07900), C-terminal domain, residues 563-732, with Y689A, I692A and L696A; Same construct as m1 (pTEV21-a), made by site-directed mutagenesis
B4: C-terminal domain (CTD) of human heat shock protein of 90 kDa (hHsp90), wild type (domain or fragment)
chain: not shown
notes: human Hsp90 alpha isoform (UniProt P07900), C-terminal domain, residues 563-732; synthetic codon-optimized DNA; Vector pTEV21-a; also called CTD wt; wt

Legend:
[1] = target: the molecule itself; test: SEC; Superdex SD200 10/300, 4°C, HPLC buffer (10 mM MES/KOH, 200 mM KCl, 1 mM EDTA, 1% glycerol) pH 6, 110 µL purified CTD, triplicates; apparent stoichiometry from calibration with globular protein standards
[2] = target: the molecule itself; test: SEC-MALS; Bio SEC-5 150 Å column, HPLC buffer without glycerol (10 mM MES, 200 mM KCl, 1 mM EDTA, pH 6), samples 2.4 mg/ml; dimer to monomers
[3] = target: the molecule itself; test: as above; remark: listed apart in the source

| Protein | binding result [1] | stoichiometry N [2] | fraction of species 1 (monomer mass) [3] | fraction of species 2 (dimer mass) [3] | stoichiometry N [1] |
| --- | --- | --- | --- | --- | --- |
| B1 | binds | – | – | – | – |
| B2 | – | 2 | 0.69 | 0.31 | 4 |
| B3 | – | 2 | 0.77 | 0.23 | 4 |
| B4 | – | 2 | 0 | 1 | 4 and 8 |
